For test [1], the target named is T1, human E-Cadherin (R&D systems, 8505-EC) (human, UniProt P12830 155-707).
T1 sequence (looked up): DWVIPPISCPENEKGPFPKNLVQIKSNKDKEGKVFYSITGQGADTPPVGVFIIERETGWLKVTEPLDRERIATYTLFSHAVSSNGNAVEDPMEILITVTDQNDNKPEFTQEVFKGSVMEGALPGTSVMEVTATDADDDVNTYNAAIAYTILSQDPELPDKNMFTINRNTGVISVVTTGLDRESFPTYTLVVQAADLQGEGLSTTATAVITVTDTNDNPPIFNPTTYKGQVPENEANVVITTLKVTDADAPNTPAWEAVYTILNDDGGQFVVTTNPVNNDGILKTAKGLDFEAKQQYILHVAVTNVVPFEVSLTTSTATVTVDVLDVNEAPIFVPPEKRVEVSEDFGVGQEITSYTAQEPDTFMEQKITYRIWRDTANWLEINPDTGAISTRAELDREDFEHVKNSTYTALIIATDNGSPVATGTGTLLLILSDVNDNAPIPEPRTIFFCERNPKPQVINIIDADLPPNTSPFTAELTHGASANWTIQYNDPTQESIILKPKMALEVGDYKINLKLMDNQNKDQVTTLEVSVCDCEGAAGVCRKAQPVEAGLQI
The test is described as follows: ELISA, antigen coated at 1 ug/ml. The method, then: (§1) A similar protocol was used as described in section 1.2.1 in which maxisorp plates were coated with 1 μg/ml of recombinant human MSLN-His-Avi, human CEACAM-5-His-Fc (Sino Biological, 1077-H03H), human E-Cadherin (R&D systems, 8505-EC), human Thrombomodulin (Peprotech, 100-58) or human EpCAM-hFc (in-house production). Binding of the anti-MSLN mAbs, tested at a concentration range of 0.02 to 1000 nM (3-fold dilutions) was detected using anti-human Fab-HRP (Sigma, A0293). Positive controls for the respective molecules included human EpCAM antibody (clone 2G8 from patent no. U.S. Pat. No. 8,236,308 B2) CEACAM-5 antibody (clone hMN15 from patent no. U.S. Pat. No. 8,771,690 B2), human E-Cadherin antibody, mouse IgG2b clone 180215 (R&D systems, MAB1838), human Thrombomodulin antibody, mouse IgG1, clone 501733 (R&D systems, MAB3947). The latter two were detected using goat anti mouse Fc-HRP (Sigma, A9309) as secondary mAb.
A general note: An ELISA detects its analyte on a solid surface through an enzyme-linked reagent.

The target in test [2] is human Thrombomodulin (Peprotech, 100-58) (human, UniProt P07204 19-515). The test is described as follows: ELISA, antigen coated at 1 ug/ml. The method, then:
as §1

The target in test [3] is T2, human MSLN-His-Avi (human, UniProt Q13421 296-598, single biotin (BirA) in the biotinylated form).
T2 construct: Monomeric, made in HEK293-6E; Used both immobilised and in solution; also called hMSLN-His-Avi; biotinylated hMSLN-His-Avi
The test is described as follows: SPR (Biacore), hMSLN-His-Avi immobilised at 50 RU, mAb injected. The method, then: Human MSLN-His-Avi was immobilised on flow cell 2 on a CM5 Series S BIAcore sensor chip (GE Healthcare, BR100530) using an amine coupling kit (GE Healthcare, BR10050) to approximately 200 response units (RU). Flow cell 1 was left blank for subtraction. HEK293-6E supernatants or purified proteins were adjusted with HBS-EP+(GE Healthcare) to approximately 50 nM anti-MSLN mAb per sample. Samples were injected over flow cell 1 and 2 for 2.5 min at 30 μl/min and then allowed to dissociate in HBS-EP buffer for 2.5 min. Regeneration was achieved by injecting 10 mM glycine pH 1.5 (GE Healthcare, BR100354) for 30 seconds at a rate of 30 μl/min. Subtracted data (flow cell 2−flow cell 1) were analysed using BIAevaluation 3.2 Software (GE Healthcare).
For each bin described in 2.1.3, the binding kinetics were determined using the same method as described in section 2.1.2, except that human or cyno MSLN-His-Avi was immobilised at 50 or 100 RU. Clones were tested at a concentration range of 81 nM to 0.33 nM in 3-fold dilutions.
Background: In SPR one partner is held on a chip, and binding of the other changes the refractive index at the surface.

Test [4] has as its target T2, human MSLN-His-Avi. The test is described as follows: competition ELISA: mAb pre-mixed with biotinylated hMSLN-His-Avi, binding to coated MUC16 (competitor). The protocol: Plates were washed 3 times with 1× PBS and blocked with 300 μl PBS containing 2% Tween20 and 2% Marvel Milk. A concentration of anti-MSLN mAbs (0.23 nM to 500 nM, 3-fold dilutions) were pre-mixed with biotinylated hMSLN-His-Avi antigen (final concentration 2 μg/ml) in a volume of 100 μl for 1 hr at room temperature. After removal of the blocking solution, the mAb/MSLN mixture was added to the plates and incubated for 1 hr at room temperature. Plates were washed 3 times with PBST (1× PBS and 0.05% Tween20) and incubated with streptavidin-HRP (Thermo Scientific, 21126, 1:1000 dilution in 1× PBS) for 1 hr at room temperature. Finally, plates were washed 3 times with PBST and 3 times with PBS. […] Absorbances were read at 450-630 nm (Gen5 software, BioTek).

The target in test [5] is T3, cell surface human mesothelin (MSLN) (human, UniProt Q13421 296-598).
T3 construct: whole, on cells; also called cell surface MSLN
Put plainly: flow cytometry on NCI-H226 cells (endogenous cell surface MSLN), detection with anti-human IgG-PE, geometric mean MFI. The protocol: Briefly, NCI-H226 cells (ATCC CRL-5826) were harvested from T175 cell culture flasks using StemPro Accutase (Gibco, A11105-01). Cells were centrifuged at 1200 rpm for 3 min and resuspended in ice cold FACS buffer made up of DPBS (Life Technologies, 14190169) and 1% BSA (Sigma-Aldrich, A7906) at 2×10⁶ cells/ml and 50 μl per well was seeded in a 96-well V-bottom plate (Costar, 3894). All mAbs tested were diluted in FACS buffer in 120 μl at a concentration range of 0.01-200 nM (4-fold dilutions). The NCI-H226 cells were then centrifuged, supernatant removed and cells resuspended in 100 μl of each mAb dilution and incubated at 4° C. for 45 min. Cells were washed twice by centrifugation with 150 μl FACS buffer, resuspended in 100 μl containing goat anti-human IgG (γ-chain specific) F(ab′)2 fragment-R-Phycoerythrin antibody (Sigma, P8047) diluted 1:1000 in FACS buffer and incubated at 4° C. for 45 min. The cells were washed once with 150 μl FACS buffer and then with 150 μl DPBS, resuspended in 150 μl DPBS containing DAPI (Biotium, 40043) at 1:10.000 and read on the BDCantoll or iQue (Intellicyt). Data was analysed using FlowJo v10 to determine the signal geometric mean for PE for live cells in each well.
In general terms: In flow cytometry, cells or beads pass a laser one at a time.

Sequence of human Thrombomodulin (Peprotech, 100-58) (P07204 19-515 limits assumed): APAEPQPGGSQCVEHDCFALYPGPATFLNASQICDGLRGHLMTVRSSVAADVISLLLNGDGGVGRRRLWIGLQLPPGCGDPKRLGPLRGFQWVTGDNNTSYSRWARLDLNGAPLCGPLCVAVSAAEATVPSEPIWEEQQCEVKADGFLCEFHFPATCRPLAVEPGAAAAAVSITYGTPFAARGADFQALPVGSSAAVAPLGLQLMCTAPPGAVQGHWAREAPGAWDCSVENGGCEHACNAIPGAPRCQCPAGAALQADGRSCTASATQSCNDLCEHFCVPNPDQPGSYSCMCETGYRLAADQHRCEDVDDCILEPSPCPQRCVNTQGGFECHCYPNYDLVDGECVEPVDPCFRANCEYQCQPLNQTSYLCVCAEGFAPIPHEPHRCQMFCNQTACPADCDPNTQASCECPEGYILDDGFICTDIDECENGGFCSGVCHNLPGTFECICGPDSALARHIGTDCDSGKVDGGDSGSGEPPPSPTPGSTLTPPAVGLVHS
T2 sequence (Q13421 other isoform, or with tags, fused parts or gaps): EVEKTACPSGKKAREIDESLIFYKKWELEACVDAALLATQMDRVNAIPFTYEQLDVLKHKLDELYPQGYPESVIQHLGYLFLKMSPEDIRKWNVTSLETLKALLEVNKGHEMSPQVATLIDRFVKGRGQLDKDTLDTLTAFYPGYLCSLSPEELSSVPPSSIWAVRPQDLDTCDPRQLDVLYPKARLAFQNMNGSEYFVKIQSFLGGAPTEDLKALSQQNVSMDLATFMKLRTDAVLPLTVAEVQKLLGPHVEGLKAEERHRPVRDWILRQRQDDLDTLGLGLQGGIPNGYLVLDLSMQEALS
T3 sequence (Q13421 other isoform, or with tags, fused parts or gaps limits assumed): as the sequence (Q13421 other isoform, or with tags, fused parts or gaps) above

B1: G1-AA/FS28-024 (antibody, human IgG1, kappa, L234A L235A, V domains shown)
VH: EVQLLESGGGLVQPGGSLRLSCAASGFTLSYSSMSWVRQAPGKGLEWVSFITPSTGYTHYADSVKGRFTISRDNSKNTLYLQMNSLRAEDTAVYYCARRALTFDYWGQGTLVTVSS
VL: EIVLTQSPGTLSLSPGERATLSCRASQSVSSSYLAWYQQKPGQAPRLLIYGASSRATGIPDRFSGSGSGTDFTLTISRLEPEDFAVYYCQQASSYPLTFGQGTKVEIKR
notes: Complete human IgG1 with LALA mutation; also called FS28-024 mAb (in G1-AA format)
In the case of B1, the binding result in test [1] and in test [2] was “no binding (tested: 1000 nM)” each time. Also, in the test with human MSLN-His-Avi [3], the affinity, expressed as Kd, was 0.77 nM. Besides, in the test with human MSLN-His-Avi [4], the IC50 (as a rule, the point on the concentration scale where inhibition reaches its midpoint) was 2.9 nM. Also, the EC50 (read off the curve) – broadly, the concentration at which the effect is half-maximal – in test [5] was around 1 nM.

B2: G1-AA/FS28-026 (antibody, human IgG1, kappa, L234A L235A, V domains shown)
VH: EVQLLESGGGLVQPGGSLRLSCAASGFTFSNYAMTWVRQAPGKGLEWVSSITPYYSKTDYADSVKGRFTISRDNSKNTLYLQMNSLRAEDTAVYYCARNWYRFDYWGQGTLVTVSS
VL: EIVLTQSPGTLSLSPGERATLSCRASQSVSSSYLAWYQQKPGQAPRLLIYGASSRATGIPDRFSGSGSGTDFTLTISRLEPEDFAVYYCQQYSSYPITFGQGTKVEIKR
notes: IgG1 LALA; also called FS28-026 mAb (in G1-AA format)
With B2, the binding result in test [1] and in test [2] was “no binding (tested: 1000 nM)” each time. Moreover, binding in the test with human MSLN-His-Avi [3] was characterised by a dissociation constant (Kd) of 0.21 nM. Moreover, in the test with human MSLN-His-Avi [4], the IC50 turned out to be 5.2 nM. For the same molecule, the “EC50 (read off the curve)” value in test [5] is around 1 nM.

B3: G1-AA/FS28-091 (antibody, human IgG1, kappa, L234A L235A, V domains shown)
VH: EVQLLESGGGLVQPGGSLRLSCAASGFTFTNYAMSWVRQAPGKGLEWVSSIKPYDGNTYYADSVKGRFTISRDNSKNTLYLQMNSLRAEDTAVYYCARNRWVFDYWGQGTLVTVSS
VL: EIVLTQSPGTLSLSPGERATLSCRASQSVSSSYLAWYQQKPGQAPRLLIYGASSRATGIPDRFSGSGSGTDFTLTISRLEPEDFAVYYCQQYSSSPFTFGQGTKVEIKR
notes: IgG1 LALA; also called FS28-091 mAb (in G1-AA format)
For the molecule B3, the binding result in test [1] and in test [2] was “no binding (tested: 1000 nM)” each time. Moreover, the Kd (in general, the constant that tells how readily two partners part at equilibrium) with human MSLN-His-Avi [3] is 1.24 nM. Also, the IC50 in the test with human MSLN-His-Avi [4] was 4.4 nM. For the same molecule, the “EC50 (read off the curve)” value in test [5] was around 1 nM.

The values are drawn from patent US20220267421A1 (INVOX PHARMA, published 2022).
